Results: article PMC3510490, “Structure of Actin-related protein 8 and its contribution to nucleosome binding” (Nucleic Acids Research, 2012)

Legend:
[1] = target: 207-bp nucleosome (Xenopus laevis); experiment: other fluorescence titration; Arp constructs or sub-complex titrated (1 to 5000 nM) into fluorescently labelled histone complexes or nucleosomes kept at 0.5-1 nM, 40 µl in microplates; 20 mM Tris pH 7.5, 150 mM KCl, 5% glycerol, 1 mM TCEP, 0.01% CHAPS, 0.01% octylglucoside; room temperature, 20-30 min; apparent Kd and Hill coefficient from non-linear fit; quadruplicates
[2] = target: H2A–H2B dimer (Xenopus laevis) (UniProt P06897); experiment: as above
[3] = tested on: Human Arp8 (Δ1-33) (Homo sapiens); experiment: fluorescence titration; conditions: 20 mM Tris pH 7.5, 150 mM KCl, 5% glycerol, 1 mM TCEP, 0.01% CHAPS, 0.01% octylglucoside, room temperature 20-30 min, labelled species 0.5-1 nM, protein …
[4] = tested on: Yeast Arp8 (Saccharomyces cerevisiae); experiment: fluorescence titration; conditions: 20 mM Tris pH 7.5, 150 mM KCl, 5% glycerol, 1 mM TCEP, 0.01% CHAPS, 0.01% octylglucoside, room temperature 20-30 min, labelled species 0.5-1 nM, protein …
[5] = tested on: Human Arp8 full-length (Homo sapiens); experiment: fluorescence titration; conditions: 20 mM Tris pH 7.5, 150 mM KCl, 5% glycerol, 1 mM TCEP, 0.01% CHAPS, 0.01% octylglucoside, room temperature 20-30 min, labelled species 0.5-1 nM, protein …
[6] = tested on: Yeast Arp8;Yeast Arp4;Actin (INO80 sub-complex I);Ino80 HSA domain (INO80 sub-complex I) (Saccharomyces cerevisiae;Saccharomyces cerevisiae;Saccharomyces cerevisiae;Saccharomyces cerevisiae); experiment: fluorescence titration; conditions: 20 mM Tris pH 7.5, 150 mM KCl, 5% glycerol, 1 mM TCEP, 0.01% CHAPS, 0.01% octylglucoside, room temperature 20-30 min, labelled species 0.5-1 nM, protein …
[7] = tested on: Yeast Arp4 (Saccharomyces cerevisiae); experiment: fluorescence titration; conditions: 20 mM Tris pH 7.5, 150 mM KCl, 5% glycerol, 1 mM TCEP, 0.01% CHAPS, 0.01% octylglucoside; room temperature 20-30 min; labelled species 0.5-1 nM, protein …

Chain of Full-length Homo sapiens Arp8 (Q9H981 whole entry): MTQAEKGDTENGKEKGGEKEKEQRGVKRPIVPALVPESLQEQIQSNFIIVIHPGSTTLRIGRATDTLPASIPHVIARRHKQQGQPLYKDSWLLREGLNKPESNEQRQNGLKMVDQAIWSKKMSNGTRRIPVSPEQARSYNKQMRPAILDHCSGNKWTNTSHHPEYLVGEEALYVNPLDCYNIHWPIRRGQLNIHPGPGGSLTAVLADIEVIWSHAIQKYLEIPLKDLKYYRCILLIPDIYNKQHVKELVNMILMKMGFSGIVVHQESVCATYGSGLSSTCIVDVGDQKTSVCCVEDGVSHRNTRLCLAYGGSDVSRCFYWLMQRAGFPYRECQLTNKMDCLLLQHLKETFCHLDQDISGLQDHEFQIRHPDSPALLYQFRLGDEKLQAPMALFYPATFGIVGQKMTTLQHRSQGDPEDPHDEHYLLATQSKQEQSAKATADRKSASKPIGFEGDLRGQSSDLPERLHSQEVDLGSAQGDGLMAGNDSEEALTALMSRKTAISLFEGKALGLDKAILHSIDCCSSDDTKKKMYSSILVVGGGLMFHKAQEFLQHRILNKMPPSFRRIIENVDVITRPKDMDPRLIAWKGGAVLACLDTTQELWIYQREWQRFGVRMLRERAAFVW
Chain of Homo sapiens Arp8 (Δ1–33) (Q9H981 34-624, stated change not applied): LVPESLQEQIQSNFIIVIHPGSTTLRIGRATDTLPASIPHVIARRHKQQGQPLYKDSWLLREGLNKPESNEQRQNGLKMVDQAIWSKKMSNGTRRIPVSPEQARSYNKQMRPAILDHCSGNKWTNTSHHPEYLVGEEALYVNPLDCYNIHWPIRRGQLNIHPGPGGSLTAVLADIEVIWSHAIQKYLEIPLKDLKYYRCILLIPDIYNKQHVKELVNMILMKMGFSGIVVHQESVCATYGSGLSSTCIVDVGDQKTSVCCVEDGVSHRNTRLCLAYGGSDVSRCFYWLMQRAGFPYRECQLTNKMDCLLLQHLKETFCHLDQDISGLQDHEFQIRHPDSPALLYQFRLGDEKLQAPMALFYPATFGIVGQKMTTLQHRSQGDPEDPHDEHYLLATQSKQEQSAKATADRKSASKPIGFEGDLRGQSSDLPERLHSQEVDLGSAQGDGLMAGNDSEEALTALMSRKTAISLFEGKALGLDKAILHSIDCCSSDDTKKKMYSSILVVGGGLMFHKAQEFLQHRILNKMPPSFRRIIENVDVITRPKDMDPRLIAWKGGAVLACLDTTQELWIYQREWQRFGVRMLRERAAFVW

Kd [1] | Kd [2] | Substance | further results
204 nM |  | Saccharomyces cerevisiae Arp4 (from UniProt P80428 1-489) (natural protein) | 
62.6 nM | 367 nM | Homo sapiens Arp8 (Δ1–33) (from UniProt Q9H981 34-624) (domain or fragment) | 
 |  | 30-bp DNA ('601' sequence linker DNA) | Kd ([3]; 5' C6 amine): 6330 nM; Kd ([4]; 5' C6 amine): 1920 nM; Kd ([5]; 5' C6 amine): 6940 nM; Kd ([6]; 5' C6 amine): 366 nM
63.6 nM | 853 nM | Saccharomyces cerevisiae INO80 sub-complex I (Arp8–Arp4–actin-HSA) (from UniProt Q12386 1-881; P80428 1-489; P60010 1-375; P53115 462-685) | 
51 nM | 555 nM | Full-length Homo sapiens Arp8 (from UniProt Q9H981 1-624) (natural protein) | 
314 nM | 1950 nM | Saccharomyces cerevisiae Arp8 (from UniProt Q12386 1-881) (natural protein) | 
 |  | 207-bp nucleosome | Kd [3]: 62.6 nM; Kd [4]: 314 nM; Kd [5]: 51 nM; Kd [6]: 63.6 nM; Kd [7]: 204 nM
